# Assay results published in the domain aggregation screens of Martell et al. (2025).
# Assay: soluble fraction after stress (log2 fold change); higher = more stays soluble; pooled small domains, quantitative proteomics
# Settings: stress: 50 degC
# In short: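 After stress at 50°C, the amount of each protein still soluble was measured. This was done on pooled custom libraries of small protein domains, using high-throughput quantitative proteomics. The figure given is a base-two log fold change and stands for aggregation propensity, with higher values meaning more protein stays in solution.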
row,Sequence,soluble fraction (log2)
1,HMKEVVVPDYFLKQLQKNKKAFITFNNFSPSHKREYVEWITEAKTEETKNRRMKSAIEWMSEGKSRNWKYI,0.0292
2,HMQSREISYSEFVTAVEAGDVRNVTLDGEQVRFRRADGSDYVTIRPEDAEVTKLLMANDIPVRAEP,0.169
3,HMQQVIEGLDSDRDFITVPEAIALFAVGRQTLYHYIRSGKIPSVNLGQRLTRLSKKQLGELFPLR,-1.63
4,HMPSARELLATNIVRLRKEKGWSQEDLALEAGLHRTFVAHVERHARNISLDNIERLANALQVNVHILLL,-3.79
5,HMRRIADVVPEQLTREEAEELLETLAEQGEIHEEQALLARYILEQSLQGVAPEVEPLIRAKLLAGILMVY,-1.69
6,HMGTVIGMGRITAGGVNFRETEGGGVIEKLERDTLVEVLTVPSVIDTTHWYQVRYNNRTGYVQAPFVQLLG,-0.0951
7,HMEVHLMPGTVLLREYESNEYRVTVTPEGFYDLNGKVFKSLSAVARHITGVNWSGPRFFGVEP,-2.08
8,HMLGSQQAYTDALRLTGLPVDIEVIESDRLPFLIPMRYSLDQHLIEVNVRYPDTRAIRVQQMVEELFHA,-0.624
9,HMKLSNELLNAIMLIKKGIRNPTSLAQRLNTDTQYAKNLLEHLKMTGLINEHSRLTSRGLDIFHQK,0.163
10,HMHNNTITLNKKTYVYTASGKKMSKYLGYTYINKGTTLNYYGTKNIKGKTFYYIGDHAYVNAANVGKVTN,-1.92
11,HMLEQLTPRELKVLQALAQGRQNKEIAAQLVISERTVKFHVSAILSKLNVGNRTEAVTVAAQRGLISL,-1.03
12,HMRVEEVGYGEFLQMAEERDLAEVQVTDTEIIFSDKDTPPNYYKTGRMDDPFLVDRLYSAGIRDFGE,-0.298
13,HMALTAEVLRSLIKHHGLGQSIQRTAKAVGLSASTVKKYFDRIAAANLTWQEAKSRTQEELIASLQPT,-0.358
14,HMKYKTKRDMILALMKKEILSGELKPRTRLLISEVASRYEVSEIPVREAFQVLIQEDLVRSTGAGFEVT,-0.744
15,HMDASVTIEQVERMVQANVSDDVIISQLQGRGAAQNLSTDDIINLTQKGISAEVIKAYQSAG,0.0658
16,HMATINGIEKYLSSGLIPGIGPHTAKKLVEKFGLDTLDIMQYNPDRLTEVEGIGDKKAAKISEAFQEQK,0.0735
17,HMSSWEEQLKIWAKNELASGNTDILARATVSFEQILIEAALTHTGGRKKTAAELLGWGRNTLTRKIKELHI,-0.29
18,HMKSKHENLIDGLLKMISSMKPHDRLTPERQLAEEWAVSRMTLRRALEVLQFQGKIYTVPSSGLFVAEPK,-2.29
19,HMKKYISEEQAKQAALETAGGGSVVKIKFTTDDGIKVYEIDIINGNYEYEITVHAETGKILDVDKERIH,-1.04
20,HMVMSVGENIAYFRKKLGLTQEMLSERIGVTAQAVSKWENGVTNPDISLLPRISEALGIGIGDLFD,-0.299
21,HMQKAEQIGSLLREKRKSMGLTQDELAQQVEVRRQTLADLELGKNVGSHLLIKVMEHLGVGFDLL,-0.192
22,HMEDLMEERKEHLLSVMKDPAYVPMKQKELAMLLNVPKGLREELNQVLDALVAEGSVVMSKRGKYTIPQ,-0.0312
23,HMTLSAPMPGTVLKIHVKEGQRVRKGQTLVVLEAMKMEHRIQAPKAGEVTNLHFSEGDRVDMGEILVEIG,0.0894

row,Sequence,soluble fraction (log2)
1,HMAMSAGEVVERIREHVGHPATIKELMRVLAIPNEERYRFRRRIKQLVEAGELIRIRGNRYGLADR,-1.85
2,HMNFSKEYILVHSYKEIDILDALIVKYEATLVNREFDLFINSYIKINEDYAKLFRDEIISKTSGSMSIKEL,-0.825
3,HMAWAVDVGVVGLFPGKAVLVIDGGAPRTVPVGANVGGVRLLAVDQGSATVEIGGKRQRLAIGQHAH,-0.402
4,HMSAIKSVTTQLDNTKLRTGPDVSYQYTQSYPANTKLTYINKSGTWYQVKDADGNTGYVASWVVTPSE,0.236
5,HMDSAVLQKHLVKLIELHAPIKARNLAKILADEFGKHVDRSAVNSALYSLKAERKVEVNSSYEWSLD,-2.11
6,HMRTIVSELNDIKGISDASAKKLLIRYGSFEAVREAVMKHEEEFELDMGKRITGALTRYFYEE,-1.61
7,HMINVGYKFKQIRENAGLTLKQVSAMSGLSVSFISQIERGVVDPSWSSLKKISAALNIKLKDLF,-1.78
8,HMDDATIKVNIAAKFLNAGNNLFVDIDTTVLEGRVLLTGLVDTQEVRIDAVRLVWEVEGIREVINEIEIG,-4.89
9,HMDAYMGEAKDEETFAEEYLNDSGLLNEIPESVARYFDIVAYARDLLIGDFSLHDGHVFNMT,-0.0437
10,HMHRAKRTKAQTQSSLESIEGIGPKTRKQLLVHFGGLAEVKAASVSELQKVKGISLDKAQKIYDFFHGS,0.00473
11,HMDIYENIDKELSKQGKSRRKLAIAAGIPPSTFQSMMERKRGLSVENLRKIAEVLNLKWYDLL,-0.195
12,HMTLTLEQAAAIKNSEGEQYGKIESERLAAMSVQIDKAIKSNGHDPNKKADLERKLDAIGIILNARAAG,0.122
13,HMSSANIKLDPLERQATQQIINNIKRKYPNATIENLQEVANDAIATMRQPEFSNYTVDKFVSYFLSM,-0.333
14,HMASQFSLIVTQADAGMRLDSLLAVSGAYPSRSAAVKQIEAGKVLVNGLARSKRSIVAPGDTIVYEEIP,-0.584
15,HMSNVDYSQFKKDTVVEHTKFGRGIIIQTSGDGEDKIAAIAFKGLGVKRFSLAIAAASLKIIGKNDE,-0.0817
16,HMNTLPTDELMKYGIINEDLSFSKKLNADDIQKFLQGYTIVADNDKNRATFQLTENNTKLKVIFLER,-0.438
17,HMLSAPMPGTVLEVHVKEGQRVREGQTLVVMEAMKMEHRVQAPRAGVVTKLHYSEGDRVDVGAILVEIG,0.0919
18,HMAPSIPSGADIRAAREAAGINLRDFARIVDGPGIAIWSRYETGTPIRVKSISPEVWQKVRDFISQHG,-0.826
19,HMIEMGNRIRTLRKRRVGSQSEFAEKLDVSVVTISRIENGMTKIDAELLIKMSEVLQVPVNIILGM,-3.22
20,HMKNNNIIFSEFLKEVENGRVVEVRIQGNNIQGIMSNGKEFTTYSPNYPNLIEKLTETGVSISAAPL,0.0449
21,HMNEAMIMIDLKGKSRDEAVKELDELNLKYRFTGNGIVKDQKPKAGEEINSDTVVEVELSEIK,0.114
22,HMELNILELKSKERKISLEDHLYIKSFNFDNETNEYFYRLAFNSSKDLKNFKATINNDKTISIINFEI,-3.16
23,HMSSSTFVGRVAVITIGEARQNSPAEARFKDRHGTTHYVMVEPMEDVVFKQGDKVLLVESAGATFKVIEPA,-0.585

row,Sequence,soluble fraction (log2)
1,HMADEDTILALAKEILASWPDKVEAYKNGNKGMLGLFMGELMKKSGGKANPKSASALIQKLLE,-0.0387
2,HMETIVGIDPDSKKKIVLKKGIKGRPDYLSFNKKNYSLPSELKEKNVSLEQALEIINDKKSNKKKIK,0.334
3,HMIEDMQQWIRQIREIVSNRLDLTRNISDDEIREVISDIVMEQSRQQYMSLNEKKTLMEGVFNSMR,-0.157
4,HMEKYNIIVDNEDNFRLDKIIALNMKDLSRTMIQEMINRGLVSVNGKITKASYKTKLNDQIEIMIED,-0.28
5,HMKPDIETQLKKYRYKVSVSKKIKPYMVFSDKTLSELLTKSPTNLKELEDINGFGPVKVQEYGAAILEILK,-0.777
6,HMQSVEELLDAIGDERLLHILLEADRKTLQIVVLKMMGYAPKEIGSHIGMPEQTVYTKLRRLREKIKKI,-1.49
7,HMDTLHGRILEEFSRKIVDGTWPPGFSLPKETELADQYGVSRMTMNKVLTRLASDGFVIRRKRSGTVVAQP,-1.21
8,HMKPMNNNDILRRLRYTFDLSDDKMMETFALGGYEANRSEISDWLKKDDHPEQKSLYDKSLSHFLNGFIV,-0.202
9,HMAKSDLNYLDFKSKLEAGEIAKASVIRNEDTFKVTLQNGEVYNVTSPDYEDFRKELLEAGVDIQVSK,0.114
10,HMAIEGIFEKYQRRSDQLIPILQDVQKEFGYIAPESVRHISRYLRISENQIFGVSSFYAQFRFT,-0.292
11,HMAAELQALSVRELEVLDQLAGGASNREIAQRLYISENTVRNHVHSILTKLKLQNRTQLVGMT,-0.239
12,HMSDKEDIDKYLLTYGDLLFNRTNSSEWVGKTAIYRGEVSAIYAGYLIRIRSFLDAEYLNSVMNSKYA,-0.235
13,HMNEFSYLSELGSEKGDLIKGLQLVQSREGYVSDDAIRAISKHFSIAEAEVEGVLTFYAQFK,-0.572
14,HMREIRIIAEEGHGRLDAFLAGREELGLSRSRIKGLIEEGQVTLNGAVPKAKQPVSPGDEIVVSVPD,0.141
15,HMNNSVAYSTFLNDIRTNTLKDVDMTSNSETINVTKKDGTKYQTVMPMYDRDLLADLSKTDATVTGQP,0.28
16,HMYQNRLFYTLKTGETVADLSKSQDINLSTIWSLNKHLYSSESEMMKAAPGQQIILPLKKLP,-0.105
17,HMPQETPIPKSEIQSYDEIWLEPISTDNILRNELRGWYHVKDRWVENEFGNRFYLDTYASKWLAFPS,-0.0557
18,HMVEVTTDEITRPGAMVSGSVTFSDGVKAIWLIDEYGRPGLEPETPGYQPSESDLSEFEKHLRALLQ,0.0647
19,HMKGVSFEEIERAVRTAQNPEADETAQQHAGMVFSRMEGNELFDKLVQSSSTIGKKITGLMDYYL,-0.0889
20,HMLSLDDAAFERYDLTMREREVLLLLLNRLTYEEIAERLFISTNTVKTHVGNVYKKTGVSSRKELVSK,-1.08
21,HMSIITLFQEINAAVAEATGGRVPESVVQNFILGKDVVIPEDVKEIIISKLKAFATDIEGMLEESGFD,-0.909
22,HMDDATDVPYQEFRTQVTSGQVEIAQFNNNTGKISFQSTSGEKFETSGPLELSSDDERLFLENIEDFKFFT,-0.0161
23,HMDRRIDIANAVKTALGSLPERQKTAIVLVHYEGFSGAETAKLLGISVEAVESLLARARRNLRQTLGP,-0.455
